The target of test [1] is HA-DPP6K (mouse dipeptidyl peptidase-like protein 6, N-terminal variant K, HA-tagged) (mouse). The experiment in a line: co-IP; DPP6 and TASK-3 co-expressed with one of them HA-tagged; membrane fraction solubilised in TNE buffer (50 mM TRIS, 150 mM NaCl, 1 mM EDTA, pH 7.4, 1% Triton X-100), precleared with mouse IgG agarose, incubated 16 h at 4°C with anti-HA agarose (clone HA-7); Western blot with anti-DPP6 or anti-KCNK9; Co-IP ratio = fraction precipitated indirectly when untagged divided by fraction precipitated directly when tagged. On the technique in general: A western blot detects proteins with antibodies after separation by electrophoresis.

The target of test [2] is Mouse TASK-3 (mKCNK9), untagged (mouse) (UniProt Q3LS21).
The target in test [3] is HA-mKCNK9 (mouse TASK-3, HA-tagged) (mouse) (UniProt Q3LS21). In words: co-IP; DPP6 and TASK-3 co-expressed with one of them HA-tagged; membrane fraction solubilised in TNE buffer (50 mM TRIS, 150 mM NaCl, 1 mM EDTA, pH 7.4, 1% Triton X-100), precleared with mouse IgG agarose, incubated 16 h at 4°C with anti-HA agarose (clone HA-7); Western blot with anti-DPP6 or anti-KCNK9; Co-IP ratio = fraction precipitated indirectly when untagged divided by fraction precipitated directly when tagged.

As for “Mouse TASK-3 (mKCNK9), untagged (from UniProt Q3LS21 1-402) (natural protein)”, the Co-IP ratio (percent of the protein that could be directly precipitated) in test [1] was 31.4%.

In test [2], “DPP6K (mouse dipeptidyl peptidase-like protein 6, N-terminal variant K), untagged (natural protein)” registered a resting membrane conductance of CHO-K1 cells co-expressing DPP6 with TASK-3, against TASK-3 alone (voltage clamp) of 2.3 fold. In addition, the Co-IP ratio (percent of the protein that could be directly precipitated) in test [3] was determined as 31.4%.
